Reference: patent US20210347832

Legend:
[1] = tested on: T1, C16-CathB-SIINFEKL
T1 sequence: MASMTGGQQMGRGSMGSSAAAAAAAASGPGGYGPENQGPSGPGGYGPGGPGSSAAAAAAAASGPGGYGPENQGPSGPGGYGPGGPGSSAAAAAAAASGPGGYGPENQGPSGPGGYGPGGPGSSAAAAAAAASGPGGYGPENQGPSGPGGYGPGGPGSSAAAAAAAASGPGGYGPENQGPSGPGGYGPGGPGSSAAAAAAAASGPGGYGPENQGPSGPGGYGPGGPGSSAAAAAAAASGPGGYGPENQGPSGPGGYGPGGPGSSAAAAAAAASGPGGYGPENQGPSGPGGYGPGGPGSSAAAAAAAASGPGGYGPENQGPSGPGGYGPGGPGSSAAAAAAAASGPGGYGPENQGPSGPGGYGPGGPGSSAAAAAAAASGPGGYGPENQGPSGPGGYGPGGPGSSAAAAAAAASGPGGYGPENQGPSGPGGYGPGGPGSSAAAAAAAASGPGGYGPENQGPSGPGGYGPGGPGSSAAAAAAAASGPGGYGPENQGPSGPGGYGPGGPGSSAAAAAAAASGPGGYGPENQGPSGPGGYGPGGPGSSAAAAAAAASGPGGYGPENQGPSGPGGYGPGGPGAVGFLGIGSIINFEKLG

[2] = tested on: T2, C16-CathS-SIINFEKL
T2 sequence: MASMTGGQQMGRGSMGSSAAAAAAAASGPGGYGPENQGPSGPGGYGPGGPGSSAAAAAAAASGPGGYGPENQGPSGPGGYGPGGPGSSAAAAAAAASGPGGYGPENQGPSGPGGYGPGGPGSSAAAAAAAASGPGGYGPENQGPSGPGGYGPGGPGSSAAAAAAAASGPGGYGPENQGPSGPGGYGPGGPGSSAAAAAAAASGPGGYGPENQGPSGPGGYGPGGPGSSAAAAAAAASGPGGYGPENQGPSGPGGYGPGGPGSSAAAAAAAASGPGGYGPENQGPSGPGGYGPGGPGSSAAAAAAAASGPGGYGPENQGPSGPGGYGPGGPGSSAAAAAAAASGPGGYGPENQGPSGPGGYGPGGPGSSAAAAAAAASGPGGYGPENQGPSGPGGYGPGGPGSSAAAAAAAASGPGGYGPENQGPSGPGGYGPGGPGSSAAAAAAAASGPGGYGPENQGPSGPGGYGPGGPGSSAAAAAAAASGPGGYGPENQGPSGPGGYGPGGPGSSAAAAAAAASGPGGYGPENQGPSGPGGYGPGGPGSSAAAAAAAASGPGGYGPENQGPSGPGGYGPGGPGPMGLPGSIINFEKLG

Substance	release of cleaved SIINFEKL peptide from particles (RP-HPLC, 96 h) [1]	release of cleaved SIINFEKL peptide from particles (RP-HPLC, 96 h) [2]	release of cleaved SIINFEKL peptide from particles (RP-HPLC, 1-96 h) [1]	release of cleaved SIINFEKL peptide from particles (RP-HPLC, 1-96 h) [2]
cathepsin B enzyme	Cathepsin S enzyme shows the better cleavage of SIINFEKL (SEQ ID NO: 11) peptides from both C16 hybrid protein particles than cathepsin B	Cathepsin S enzyme shows the better cleavage of SIINFEKL (SEQ ID NO: 11) peptides from both C16 hybrid protein particles than cathepsin B	–	–
cathepsin S enzyme	–	–	Cathepsin S also cleaves SIINFEKL (SEQ ID NO: 11) peptides from particles designed for cathepsin B release, but slower and in a lesser extent	Cathepsin S enzyme shows the better cleavage of SIINFEKL (SEQ ID NO: 11) peptides from both hybrid polypeptide particles
